Test results reported in US7638487B2, “Lactoferrin in the reduction of pain” (Agennix, Inc., priority 2002, dated 2009).

How the values were obtained:
[1] = tested on: radiant heat-induced tail-flick response in mice; test: Tail flick test, radiant heat-induced pain in mice; assay type: in vivo
Procedure: The tail flick test measures the time (max 15 s) required to elicit a radiant heat-induced tail-flick response in mice. Mice received 1000 mg/kg rhLF or placebo orally 60 minutes prior to test (N=5 per group).

[2] = tested on: phenylquinone-induced writhes in mice; test: Phenylquinone (PQ)-induced writhing test in mice; assay type: in vivo
Procedure: The PQ test measures the number of writhes seen during a 5-10 minute period following IP injection of phenylquinone in mice (2 mg/kg) (N=3). Mice received 1000 mg/kg rhLF or placebo orally 60 minutes prior to test (N=5 per group).

B1: recombinant human lactoferrin (protein, UniProt P02788 20-710, looked up)
Lactotransferrin: GRRRSVQWCAVSQPEATKCFQWQRNMRKVRGPPVSCIKRDSPIQCIQAIAENRADAVTLDGGFIYEAGLAPYKLRPVAAEVYGTERQPRTHYYAVAVVKKGGSFQLNELQGLKSCHTGLRRTAGWNVPIGTLRPFLNWTGPPEPIEAAVARFFSASCVPGADKGQFPNLCRLCAGTGENKCAFSSQEPYFSYSGAFKCLRDGAGDVAFIRESTVFEDLSDEAERDEYELLCPDNTRKPVDKFKDCHLARVPSHAVVARSVNGKEDAIWNLLRQAQEKFGKDKSPKFQLFGSPSGQKDLLFKDSAIGFSRVPPRIDSGLYLGSGYFTAIQNLRKSEEEVAARRARVVWCAVGEQELRKCNQWSGLSEGSVTCSSASTTEDCIALVLKGEADAMSLDGGYVYTAGKCGLVPVLAENYKSQQSSDPDPNCVDRPVEGYLAVAVVRRSDTSLTWNSVKGKKSCHTAVDRTAGWNIPMGLLFNQTGSCKFDEYFSQSCAPGSDPRSNLCALCIGDEQGENKCVPNSNERYYGYTGAFRCLAENAGDVAFVKDVTVLQNTDGNNNEAWAKDLKLADFALLCLDGKRKPVTEARSCHLAMAPNHAVVSRMDKVERLKQVLLHQQAKFGRNGSDCPDKFCLFQSETKNLLFNDNTECLARLHGKTTYEKYLGPQYVAGITNLKKCSTSPLLEACEFLRK
In the case of B1, the “reduction in pain as measured by number of tail flicks observed” value ([1]; 1000 mg/kg orally 60 minutes prior to test, vs placebo (FIG. 1)) is reported as “statistically significant reduction in pain”, the “difference in tail flick response between placebo and treated groups at time zero” value ([1]; 1000 mg/kg orally, time zero (FIG. 1)) is reported as “No difference in response” and the “reduction in pain as measured by number of writhes observed” value ([2]; 1000 mg/kg orally 60 minutes prior to test, IP phenylquinone 2 mg/kg, writhes during 5-10 minute period, vs placebo (FIG. 2)) is reported as “reduction in pain”. The “difference in writhing response between placebo and treated groups at time zero” value ([2]; 1000 mg/kg orally, time zero (FIG. 2)) was “No difference in response”.
